According to patent US20140228277A1 (Genentech, published 2014):
Positions of bridges follow the written chain, without caps; N, C: chain ends. Non-standard residues stand in square brackets, D forms with d. No end group written: not given here. Cit = NC(=O)NCCC[C@H](N)C(=O)O; Orn = NCCC[C@H](N)C(=O)O

Columns and labels:
[1] = molecular target: T1, recombinant human BACE1 (rhBACE1) (human, UniProt P56817 22-457, limits assumed); test: spot phage ELISA, plate-immobilized BACE1 against BSA
[2] = molecular target: T1, recombinant human BACE1 (rhBACE1); test: cell-based or functional assay
[3] = molecular target: T1, recombinant human BACE1 (rhBACE1); test: FP competition binding; 12 nM rhBACE1, competitor probe 5-TAMRA-BACE020
Method: BACE1 binding assays were carried out in a final volume of 10 μL per well in black 384-well microplates (Proxiplate-Plus; Perkin Elmer, Waltham, Mass.). […] The reaction was permitted to proceed towards equilibrium for 2 h at ambient temperature prior to fluorescence polarization measurement using Envision (Perkin Elmer). The parallel and perpendicular fluorescent emissions measured in each well at 595 nm (excitation 531 nm polarized light) were used to determine the milli-polarization level (mP) using the following formula: mP=1000*(S−G*P)/(S+G*P) where S=parallel emission, P=perpendicular emission and G=0.65.
The affinities of BACE1 peptide ligands were measured using the abovementioned competition binding FP assay for determining IC₅₀ values with serially diluted peptides. A Caliper assay was used to measure the inhibition of BACE1 enzymatic activity by peptide ligands.

T1 sequence (P56817 22-457 limits assumed): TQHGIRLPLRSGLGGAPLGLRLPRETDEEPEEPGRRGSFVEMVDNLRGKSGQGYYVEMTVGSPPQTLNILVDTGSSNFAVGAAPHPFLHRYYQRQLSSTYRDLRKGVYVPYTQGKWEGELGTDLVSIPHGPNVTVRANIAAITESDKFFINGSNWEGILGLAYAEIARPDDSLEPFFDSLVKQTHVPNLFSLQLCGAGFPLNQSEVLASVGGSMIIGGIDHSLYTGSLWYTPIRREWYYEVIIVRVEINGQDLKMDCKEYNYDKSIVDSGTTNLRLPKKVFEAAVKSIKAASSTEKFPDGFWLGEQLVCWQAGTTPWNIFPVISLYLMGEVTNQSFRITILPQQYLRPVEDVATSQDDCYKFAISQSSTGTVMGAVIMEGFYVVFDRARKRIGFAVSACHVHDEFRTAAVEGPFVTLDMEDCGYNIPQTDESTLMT

fold improvement of signal/noise ratio over parent BACE017 [1] | Caliper (MCE) BACE1 activity assay IC50 [2] | IC50 [3] | Binder | other results
> 5 fold |  |  | KEESIHCRLLGLGCG (not shown: M13 major coat protein; peptide fused to its N-terminus) [SEQ ID NO 80] | 
 | 12 nM | 31 nM | Ac-AEESMYCRLLGIGCG-NH2 (disulfide 7-14 (inferred), also called BACE020 position 1 to Ala) [BACE042] | 
 | 7 nM | 12 nM | Ac-NEESMYCRLLGIGCA-NH2 (disulfide 7-14 (inferred), also called BACE020 Gly15 to Ala) [BACE054] | 
 | 93 nM | 225 nM | Ac-NEESMACRLLGIGCG-NH2 (disulfide 7-14 (inferred), also called BACE020 Tyr6 to Ala) [BACE047] | 
 | 304 nM | 2340 nM | Ac-NEEAMYCRLLGIGCG-NH2 (disulfide 7-14 (inferred), also called BACE020 Ser4 to Ala) [BACE045] | 
 | > 10000 nM | > 10000 nM | Ac-NEESMYCALLGIGCG-NH2 (disulfide 7-14 (inferred), also called BACE020 Arg8 to Ala mutant) [BACE048] | 
 | 3580 nM | 4500 nM | Ac-NEEHMYCRLLGIGCG-NH2 (disulfide 7-14 (inferred), also called BACE020 Ser4 to His) [BACE056] | 
 | 18 nM | 36 nM | Ac-NEESMYCRLLAIGCG-NH2 (disulfide 7-14 (inferred), also called BACE020 Gly11 to Ala) [BACE051] | 
 | 14 nM | 39 nM | Ac-NEESMYCRLLGAGCG-NH2 (disulfide 7-14 (inferred), also called BACE020 Ile12 to Ala) [BACE052] | 
 | 7 nM | 37 nM | Ac-NEESMYCRLLGIACG-NH2 (disulfide 7-14 (inferred), also called BACE020 Gly13 to Ala) [BACE053] | 
 | 46 nM | 131 nM | Ac-NEASMYCRLLGIGCG-NH2 (disulfide 7-14 (inferred), also called BACE020 Glu3 to Ala) [BACE044] | 
 | 1380 nM | 7700 nM | Ac-NEESMYCRALGIGCG-NH2 (disulfide 7-14 (inferred), also called BACE020 Leu9 to Ala) [BACE049] | 
 | 13 nM | 41 nM | Ac-NAESMYCRLLGIGCG-NH2 (disulfide 7-14 (inferred), also called BACE020 Glu2 to Ala) [BACE043] | 
 | 49 nM | 186 nM | Ac-NEESMYCRLAGIGCG-NH2 (disulfide 7-14 (inferred), also called BACE020 Leu10 to Ala) [BACE050] | 
 | 11 nM | 27 nM | Ac-NEESMFCRLLGIGCG-NH2 (disulfide 7-14 (inferred), also called BACE020 Tyr6 to Phe) [BACE055] | 
 | 435 nM | 1570 nM | Ac-NEESAYCRLLGIGCG-NH2 (disulfide 7-14 (inferred), also called BACE020 Met5 to Ala) [BACE046] | 
> 5 fold |  |  | DVESVYCRLLGLGCG (not fully specified (C-terminus, bridges); cysteine pairing not given here, not shown: M13 major coat protein; peptide fused to its N-terminus) [SEQ ID NO 77] | 
> 5 fold |  |  | NDESVYCRLLGIGCG (not shown: M13 major coat protein; peptide fused to its N-terminus) [SEQ ID NO 78] | 
 |  | > 10000 nM | Ac-NLTTYPYFIPLP-NH2 (also called Peptide 1 of Kornacker et al) [BMS1] | Caliper (MCE) BACE1 activity assay, EC50 (rate increased) [2]: 227 nM
 | 1280 nM | 2600 nM | Ac-SMYCRLLGIGCG-NH2 (disulfide 4-11 (inferred), also called BACE31) [BACE031] | 

fold improvement of signal/noise ratio over parent BACE017 [1] | Caliper (MCE) BACE1 activity assay IC50 [2] | IC50 [3] | Binder | other results
> 5 fold |  |  | IEESIYCRLLGFGCG (not shown: M13 major coat protein; peptide fused to its N-terminus) [SEQ ID NO 75] | 
> 5 fold |  |  | HEDHLYCRLLGIGCG (not fully specified (C-terminus, bridges); cysteine pairing not given here, not shown: M13 major coat protein; peptide fused to its N-terminus) [SEQ ID NO 88] | 
> 5 fold |  |  | KEESIYCRLLGHGCG (not fully specified (C-terminus, bridges); cysteine pairing not given here, not shown: M13 major coat protein; peptide fused to its N-terminus) [SEQ ID NO 85] | 
 | 54 nM | 102 nM | Ac-KEESIYCRLMGLGCG-NH2 (disulfide 7-14 (inferred), also called BACE-18) [BACE018] | HTRF BACE1 activity assay IC50 [2]: 77 nM
> 5 fold |  |  | NGDNMYCRLLGLGCE (not fully specified (C-terminus, bridges); cysteine pairing not given here, not shown: M13 major coat protein; peptide fused to its N-terminus) [SEQ ID NO 76] | 
 | 772 nM | 2300 nM | Ac-ESMYC[Cit]LLGIGCG-NH2 (disulfide 5-12 (inferred), also called BACE030 with Arg to citrulline) [BACE060] | 
 | 13 nM | 12 nM | Ac-EESMYCRLLGIGCG-NH2 (disulfide 6-13 (inferred), N-terminal truncation of BACE020) [BACE029] | 
 | 222 nM | 512 nM | Ac-ESMYC[Orn]LLGIGCG-NH2 (disulfide 5-12 (inferred), also called BACE030 with Arg to ornithine) [BACE059] | 
> 5 fold |  |  | NVEHIHCRLLGLGCG (not fully specified (C-terminus, bridges); cysteine pairing not given here, not shown: M13 major coat protein; peptide fused to its N-terminus) [SEQ ID NO 81] | 
> 5 fold |  |  | TDESIYCRLLSIACG (not fully specified (C-terminus, bridges); cysteine pairing not given here, not shown: M13 major coat protein; peptide fused to its N-terminus) [SEQ ID NO 84] | 
 |  | > 10000 nM | Ac-ALYPYFLPISAK-NH2 (also called Peptide 2 of Kornacker et al) [BMS2] | Caliper (MCE) BACE1 activity assay, EC50 (rate increased) [2]: 26400 nM
> 5 fold |  |  | NDDSLYCRLLGLGCG (not fully specified (C-terminus, bridges); cysteine pairing not given here, not shown: M13 major coat protein; peptide fused to its N-terminus) [SEQ ID NO 82] | 
 | 15 nM | 10 nM | Ac-NELSPYCRLMGLGCD-NH2 (disulfide 7-14 (inferred), also called BACE-19) [BACE019] | HTRF BACE1 activity assay IC50 [2]: 10 nM
> 5 fold |  |  | NEENMYCRLMGIGCG (not fully specified (C-terminus, bridges); cysteine pairing not given here, not shown: M13 major coat protein; peptide fused to its N-terminus) [SEQ ID NO 86] | 
> 5 fold |  |  | TEESLYCRLLGVGCG (not fully specified (C-terminus, bridges); cysteine pairing not given here, not shown: M13 major coat protein; peptide fused to its N-terminus) [SEQ ID NO 79] | 
 | 18 nM | 23 nM | Ac-ESMYCRLLGIGCG-NH2 (disulfide 5-12; SMILES CC[C@H](C)[C@@H]1NC(=O)CNC(=O)[C@H](CC(C)C)NC(=O)[C@H](CC(C)C)NC(=O)[C@H](CCCNC(=N)N)NC(=O)[C@@H](NC(=O)[C@H](Cc2ccc(O)cc2)NC(=O)[C@H](CCSC)NC(=O)[C@H](CO)NC(=O)[C@H](CCC(=O)O)NC(C)=O)CSSC[C@@H](C(=O)NCC(N)=O)NC(=O)CNC1=O, Minimal version of BACE020 with full activity) [BACE030] | 
 | 74 nM | 486 nM | Ac-ESMYCKLLGIGCG-NH2 (disulfide 5-12 (inferred), also called BACE030 with Arg to lysine) [BACE058] | 
 |  | > 10000 nM | Ac-SGPYFIEYMSAV-NH2 (also called BACE10) [BACE010 (Ac-SGPYFIEYMSAV-NH2)] | Caliper (MCE) BACE1 activity assay, EC50 (rate increased) [2]: 2200 nM
 |  | > 10000 nM | Ac-YPYFIPL-NH2 (also called Peptide 4 of Kornacker et al) [BMS4] | Caliper (MCE) BACE1 activity assay, EC50 (rate increased) [2]: 1760 nM
